Source: the NTF2 design screens of Basanta et al. (2020)

assay: protease stability score; higher = more stable; yeast display proteolysis, trypsin and chymotrypsin;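 further: relative to predicted unfolded state with 0 unfolded-like and 1 meaning tenfold more protease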

Sequence | protease stability score
DEEEHALWHWFQEHVHALETGDEDTLRELADPNVRLDINGKRIHGRHQLEHLIHRIDHMRIDDYKIDHVDRQGEKVIIDGTFHGKIIQGDKTIHMHTRVIIILLKVDGQWRLKSEQID | 1.12
DDSEEHAEEVVRELSESLRTGDEKSVDRLLDPNVKFIINGVEYVGRELFLELFKKTLEEIRIESIEVTHIDIQGEKVRLETKEHAIINGKRFQFKTEVIMRKVNGRWEIQELRFE | 1.98
DEDHKHWKKLTEILFHVFRTGDWHLLEKLADPNVRTVVNGVEIHGREHLADIMWLHKETLGIDHMELRSIEYQGEKFIIHAEIDVNGRKVDVHIRSVIIDGRMHSISIEVHHH | 1.99
DEEEEFQRELVKLLVEWVHTGDWEHISKYADPHVKVHVDGRDSIGREEMRKTLKRFSDLLGADHIRFEHVRIIDGRVTIHSRVEYGDKEHHIIIQSSKIDGRWYLHSVDIR | 0.995
SEDEEFAKRFFEILVHYHKTGDWEKRMKMADPNTRSDINGVHFHGREDIYRFEDELWREMGIDHVEFHVRDSDIQGDKLHLHTQVIIHVGNKHIELDERMILLKFNGQWVLESLEVK | 1.32
EEDQKMLEMVFRIILDLWITGDFDLIERLLDPDVRLDSKIGDKTVHHHGREEVAKHLFHIRIEDFIIHRVHVQGDKITINGELDGHFNGKRFNSEIHIHYVVINGRIRRLSFEEN | 2.2
DELEELLQRAIKMFKDTNETGDEETLEKLLDPNVRYQVGDKEFHGREAIHVIFRRADHWKEMRIRSFRVYDGRAELDVEEVIFYNGVEIRTRTRIHFRKVDGRWYVHSIEIS | 1.53
DEEEKILHDALEELKREFETGDEELWQRLADPHTRVEVGDKEYHGREEFVKMMSDFVRHLRWEELRIRSVHAQGEKVITHIELEMNIDGRREIHNVTIIMRKINGRWHIEFMHKR | 0.926
SELHKHVKHLAEHFWHLLETGDWEKMTKNADPNDRLDIHIGDKDIHNHGRERSLKTWTELEREMGIDHLTLRHRDLQGDKVIIHTESVFDGRHVKVEIIVVVINGRLKRVEVRFE | 0.767
HEDHKFLNEFVELWLRAEHTGDEDWLEENADPNTRVEVNGKSIHGMEYELRHLHHVLDRFKNMTFDTTVTRIDQQGDKAKVKVEIRLDIDGKDIRLEVDLIITKINGRWIVREIRYK | 1.22
DEERQRAHKWMHDWIKAYLTGDEEHQNQMLDPNMRIEYGDKTHHGRDILIEIFREELRQVDHIEIRIRHIDNFEGRVRTDGELHVKINGRREHYDIILEYDVVNGKLKIERWDIR | 1.45
SEDEKEAKETQSIYSHAVQTGDEHHLKELADPNVRIEINGVEYVGWEQLKDMLERFKNVRIKVSVRRVHQIGDKIHLNTELEEDVDGVRRVIDVRVIIWKINGRWRFKTFESQ | 1.41
HEHDQKSNKMSEILMELWKTGNEDWMDKLVDPNARTDIEVGDKRIENVGMEELHKWLFDHHRRIKGIKIIHRTMEVVGDKVTLHLELRFNGVRVEIIIRLIVIDGRVHSQHYEVRTE | 0.59
SEEEELTQELFERFHHVLRTGDWREMVHLADPNARNIFENRTIVGREDVSKILSELLQRVKGIRWHIESIHVQGDFLKLDYRMQVGDKSENVEIHYLKFNGKWILKSIRFE | 1.32
DDEEKETEDFLRLLIEFLLTGDEERLKDLLDPNTRLEYGEFDFVGREHVLEWRHHYRKILGAKHRELRIEHLHVIDGRVNAISRVHLRFDGREYSHETIIIIEKVNGKWLLHSEEIR | 1.33
SEEEEQAKRVIDHVTRAIHTGDEDVLRRQFDPHVKIEVGDKDIHGWETMYEILTHIRIETESDVKDFKVQGDKLIMDVRLRFTIRIDGVEIHRQTTTNIIVHKVNGRWQMKKVEIR | 0.409
REKDDLLHEFTERYMTAIETGDEETLEKLMDPDVKLHVGEYHDHGREDVSEWLRTHLEQWRIERIEIQHVDLQGDKLRVDLIVHARVGDKRIILHTILISRKINGRWHIKFFSMR | 1.3
SEDEHRAREVVHIFNEAIDTGDFQSLMDMMDPNVRLIFENHHTIGREEALKVINRFDHVRNHHVRWRHVHHVNGRIIDHTEVDIVIHINGQIIRETTERDITIEKVNGRWLIHQIEIR | 1.14
DEEEHLMREALNTFMRTLETGDERQLNELLDPDVRSRVDGQDLHGREHVVRLFEEFRRQARIHHVDVHHMDVIGDWIRVELRVDIRIGDKLYTYKKHIVALKVDGRWFMHRVEIH | 0.773
HDMEERSKHVHHIILRSLRTGDEDAYERLADPDTRLHVGDKNIHGRESIRNIWREILERIPNMRIELELEDSEIVGDYIYLKINLRMNFDGREVEHEIRIVSLKINGRWVEKSVHFR | 0.591
SEDEKRAKEFDERFNENLLTGNFEKLLHLADPNAKVFYNGQENHGMHLFLKWMVELLKQIRVEDVELDDYKIYGEKIVLDVTIHTRFDGQETEWKTRIITTKVDGRWVLKTVEIR | 1.45
DEEHEEYMDWAIIHLHDWLTGDEDHHNELADPNDRLELVIGDKRIERIGREEVTKQLHEFRKHMRVHRIEIKTRNVYNGKAHLHGIMHFRVGDKKYDVETHIVIVIINGVLKQVKIEIR | 0.773
SREEELAKKLLEIYSRSVETGDWKKLFELMDPNTRVEQGEWHFHGREEFHKLVHKFLERADVVHVEIDRIKVIGDFVHIDVVLHIHQGEFHHVVRTRLDYLKFNGRWVLQTIRIE | 1.6
HEEERHREEIMERLLTAIKTGDPKITRELIDPHTRIEIGDKNLHGMEIWLKYIHTLFEKFPNLTLRIEDSHAQGEKFIIVIRLRFDGREVNLVLYYTIVNGRIKTIEIEEK | 1.43
DELKEISDEIVLMFDRAIRTGDEHTMKKLLDPNYLLRVDGVDIVGRERFTEIIRQFDHVDYESHRIRDVSIQGDKIDVDSETDIHFTYNGKRERRTYRVRIIILKINGRWRIHEVHLH | 1.77

Sequence | protease stability score
NEDEDWLRKVLHLLLHAAETGDEEILLHLLDPNARFIQGDKFKVGMDILETWIRKIKNLRIHDFELKDMRVYNGRIEVDGHLDRIINGQRERTDIILFLLKVDGRWYFEEIRIS | 2.09
SETHEILERIMRMILEILYTGDEESMSRLLDPHVKLVVVIGDKELHLHGRENALRWLVHWRIEDYRLRRYTVQGDKAHVDTESTGNYNGQREESRFSLHVKVINGKIHNMKFEFE | 2.56
THEEEIFRRIAELIIDALTTGDEQLLRDLADPHVRQILIIDGREITVHGREEVFELLKEHIDELRIHRVNIEHMDVVGNKVTLDGRMDGYYGDKRTRLEFRIHIDIVNGKLKELTITMR | 2.16
DEREEELHHMLEVLEFAFHTGDFEKLSKMFDPHVRIDVNGQELHGWKHAHEHIEDLFRKVKNIRLEFRDIRFQGDKIDIDGIMIFNGVRHEVKIITVKVNGRWLWRSINIH | 2.33
DEDEDFIRHQIQLYIELFETGDWRSLKRLADPNARHHINGRDLHGMDLFRRHIEHMGIKIKHIKLRDMRVIGDKIELKVENNVEIDGRERSLEEEIIARKIDGRWILESSTIR | 0.39
DEIDEAIIEFFRLMLEWNETGDEEYIDTLIDPHTQLKIIYGDKDREFIGREEYFKIVLEWRIKEVRIHSIHTQGNKLNIDGEINGNIDGRDTKTRINIHFIVVNGRLKTITLRFE | 2.43
SEEDELAREVSRIFTEASRTGDEERLIRLIDPHAKIQIGDKHFIGREDMEEWTRRLVERVDHLEVFIEDSRLIGNKLDVKGLFIEDYGDKRTVLEVRWILVKINGRWSIHSLHFK | 1.23
DEEHKLAEHYLRIWIHALITGDFHKILHLMDPNVRNEVGDKEVHGREEWEKFLKRVKNVVIEHVELDHLLVVDGRVHIRVTLHMSYGDKTEDHDIHVLMHKVDGRWYIKSIHVK | 2.43
SDDHHKAKLFNEWFKQHFDTGDEHLYKRLADPNVRIHINGVDIVGRELATHLLSHIRITHFEVHDHKVQGNKVHTDGRVHGDVNGVEERVYVELVIEKIDGRWLNHQEIWV | 0.332
SEEEKRARIASELLFEYLHTGDETLWEELMDPDVRLEINGRLFHGMDSFRHALEIWLKEIRLRDMRVRELHVIGDKIHVNSEDEVEVNGRVVNYESRLDMEKIDGRWRIKRTSIK | 1.19
SELEEEMEKWARDFLRLWFTGDEETTERLFDPHARMDVNGVQNHGWEMMSRQLTHYINHIRIRDLEVETISQQGDKIYVHGQENVEIGDKHLRYHTHIELVIVNGRVQEVRIEVK | 0.993
SEEEEHLLKWFEELITLLLTGDEDRLSELMDPNVRIEIGDKTLVGMEWANHDYTRKIRERGWRIEIIIRELRAQGDKVRARTELRIRFDGREITYETEMILVVVNGRFKRIETRVH | 1.46
NEEERENIRIFMMWIEDLVTGNWDRIEHLADPHYRQDVNGRHIHGRDTFAQMVREEMHRIDHHEIKLRHVSVQGNKLRAHVEINLIIGEKRIEKEVIVDLNVINGVLHEVKIVVR | 1.04
DEFTELTREVLHRIVTHLRTGNEEELARLMDPNARLEINGKEFHGREEILRLIHELEKKMGIKHVDMVIRRDTIIGDYARVNGEIIIIVDGKEIRLDTEIFILKIDGKWFIRTESIR | 1.21
TEYEEHMKKMNEEILHSWITGDEDTLQHLADPNVRVEINGQETHGREQLYNTFHKAGFKHWEFDSIRFQGDKSDIRGQFEVDGQLREMEVEMRIVNGRLKIVRLDIR | 0.977
SDEEKESKHMFKIYLDFLRTGNEEQYSEMADPNVRIEVNGVTIHGRELAVKFMKEVRDEMRIHDYRIRHLDVFNGRVHADTEENVEFNGVRFITRTKIHLHIVNGRIKSVREEID | 0.903
SEDEEFAEKYLKEWVERVRTGDEDHLWKLLDPDPRIRIDGKEIIGREIAVKHMSEIRPTSIRLTSFHSQGDKINVDGETDGEFNGVRQRQRVIYIILKVDGRWLLHSVEFK | 1.05
DEETKIIEHILEHWLRLIQTGDFHELFRLVDPNVRIDINGVEYHGREEMIKFWKEEVDKLGVDRIHTDLNRNEYQGDKIILHQEVRINGRHIDIHVHAEKVDGVWILRILKRD | 1.57
DEHKEEFREWVERLEHVLKTGNEDELHELADPDVKVRIGDKEIHGMHEVLRFILEFYKKLGIDHRHLRIDDYRVQGDFLHIDGHLELTFNGRKHTHQLHIVVLKVNGRWILKEIRVS | 2.25
DETNKTLKEVFRELVHSLFTGDEERLTELADPHARFHQGEKELHGREEISKEMSRMIERADHVKIILTHMEVQGDKIIIEGHLEIRVDGRRIDVSTTLILHKVNGRWFITEIHII | 0.241
SEEEENILIAYRLIMHSVNTGDESSLLELIDPDYRLDVNGVDIHGREEWYRDQKERFRDAGFKHTEFRFRDLRVQGDKVFLDVEITWHVDGKTIRHRVTMIVLKVNGRWLVESFKVK | 1.48
DEDEELAKHAIKHWLEALETGDEKRLKELIDPNTRLIVNGQEFHGMESVSKKLIEEIERIPNVTLELHDVRIYNGRVNTDVTVRYNGRTITLHLIILKVNGKWIMESIQLH | 1.78
DEDHRHARNIFQKWTHDLATGNFHSLNTLFDPHARFEVGDKDIIGRHEWQEHLRHLRLHEVKFTWRRFRIFDGRVEMRGDLRVDGTIDGQHDDETIHTHMIILKVNGRWHIDSMHVH | 1.08
DEKEELSKRAFERMLHWLETGDFDKFERYADPNVKTVIGDKYFIGRERVSRTVLHWLEVLGVDHRHVEDSDVHTFENHAVMDLHTRVHVDGQDREIRFILLVTKVNGRWNVTSIKIEIR | 0.661
SEDEEHAELALRLWEIVEKTGDETEARKMFDPHTRIIIDGRDLIGWSFIRHLMRRFDHVDIDHKREKRREFQGEKVRMDIEVDMEFVVGEKIYRIDFRVNIVLLKVNGKWRIHSLEIK | 2.47
